The supplement of paper PMC5998384

Columns and labels:
HeLa Kyoto [1] = test: melting temperature (median over replicates), in situ; higher = more thermally stable
HeLa Kyoto [2] = test: thermal stability score vs G1/S (z-score of summed log2 fold changes over temperatures); higher = more thermally stable than in G1/S
HeLa Kyoto [3] = test: solubility change mitosis vs G1/S (difference of NP-40 vs SDS log2 ratios) (log2 ratio difference); higher = more soluble in mitosis
HeLa Kyoto [4] = test: solubility in G1/S (NP-40 vs SDS abundance) (log2 ratio); higher = more soluble; conditions: cell cycle stage: G1/S
[5] = cell cycle stage: early G1 (4.5 h after nocodazole release)
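For melting temperature (median over replicates), in situ in this document: HeLa Kyoto cells synchronized by double thymidine or nocodazole block, proteins quantified by TMT10plex mass spectrometry, three independent biological replicates.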
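For solubility change mitosis vs G1/S (difference of NP-40 vs SDS log2 ratios) in this document: synchronized HeLa Kyoto cells (double thymidine block for G1/S, nocodazole release for mitosis), protein amounts in NP-40 versus SDS lysates quantified by mass spectrometry, three biological replicates.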
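For solubility in G1/S (NP-40 vs SDS abundance) in this document: HeLa Kyoto cells arrested at G1/S by double thymidine block, proteins quantified by TMT10plex mass spectrometry in mild NP-40 versus SDS extracts, three biological replicates.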
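For thermal stability score vs G1/S (z-score of summed log2 fold changes over temperatures) in this document: synchronized HeLa Kyoto cells, proteins quantified by TMT10plex mass spectrometry, three biological replicates, mitosis taken 0.5 h after nocodazole release, G1/S directly after double thymidine block.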

Chain of HNRNPAB (chain, as listed by the source): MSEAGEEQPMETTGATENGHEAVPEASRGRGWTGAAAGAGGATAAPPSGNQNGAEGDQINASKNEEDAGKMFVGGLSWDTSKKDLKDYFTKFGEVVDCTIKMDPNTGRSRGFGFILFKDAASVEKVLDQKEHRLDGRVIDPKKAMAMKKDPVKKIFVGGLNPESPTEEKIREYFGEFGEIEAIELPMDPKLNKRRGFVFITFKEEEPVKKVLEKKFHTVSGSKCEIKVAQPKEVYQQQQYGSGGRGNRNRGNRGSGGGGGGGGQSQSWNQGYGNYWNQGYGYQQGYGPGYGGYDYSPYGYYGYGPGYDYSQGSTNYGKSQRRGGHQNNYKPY

| Substance | melting temperature (HeLa Kyoto [1]; cell cycle stage: G1/S) [°C] | thermal stability score (HeLa Kyoto [2]; [5]) | thermal stability score (HeLa Kyoto [2]; cell cycle stage: mitosis) | solubility change mitosis (log2) (HeLa Kyoto [3]) | solubility in G1/S (log2) (HeLa Kyoto [4]) | melting temperature (HeLa Kyoto [1]; cell cycle stage: mitosis) [°C] |
| --- | --- | --- | --- | --- | --- | --- |
| MGKLRRRYNIKGRQQAGPGPSKGPPEPPPVQLELEDKDTLKGVDASNALVLPGKKKKKTKAPPLSKKEKKPLTKKEKKVLQKILEQKEKKSQRAEMLQKLSEVQASEAEMRLFYTTSKLGTGNRMYHTKEKADEVVAPGQEKISSLSGAHRKRRRWPSAEEEEEEEEESESELEEESELDEDPAAEPAEAGVGTTVAPLPPAPAPSSQPVPAGMTVPPPPAAAPPLPRALAKPAVFIPVNRSPEMQEERLKLPILSEEQVIMEAVAEHPIVIVCGETGSGKTTQVPQFLYEAGFSSEDSIIGVTEPRRVAAVAMSQRVAKEMNLSQRVVSYQIRYEGNVTEETRIKFMTDGVLLKEIQKDFLLLRYKVVIIDEAHERSVYTDILIGLLSRIVTLRAKRNLPLKLLIMSATLRVEDFTQNPRLFAKPPPVIKVESRQFPVTVHFNKRTPLEDYSGECFRKVCKIHRMLPAGGILVFLTGQAEVHALCRRLRKAFPPSRARPQEKDDDQKDSVEEMRKFKKSRARAKKARAEVLPQINLDHYSVLPAGEGDEDREAEVDEEEGALDSDLDLDLGDGGQDGGEQPDASLPLHVLPLYSLLAPEKQAQVFKPPPEGTRLCVVATNVAETSLTIPGIKYVVDCGKVKKRYYDRVTGVSSFRVTWVSQASADQRAGRAGRTEPGHCYRLYSSAVFGDFEQFPPPEITRRPVEDLILQMKALNVEKVINFPFPTPPSVEALLAAEELLIALGALQPPQKAERVKQLQENRLSCPITALGRTMATFPVAPRYAKMLALSRQHGCLPYAITIVASMTVRELFEELDRPAASDEELTRLKSKRARVAQMKRTWAGQGASLKLGDLMVLLGAVGACEYASCTPQFCEANGLRYKAMMEIRRLRGQLTTAVNAVCPEAELFVDPKMQPPTESQVTYLRQIVTAGLGDHLARRVQSEEMLEDKWRNAYKTPLLDDPVFIHPSSVLFKELPEFVVYQEIVETTKMYMKGVSSVEVQWIPALLPSYCQFDKPLEEPAPTYCPERGRVLCHRASVFYRVGWPLPAIEVDFPEGIDRYKHFARFLLEGQVFRKLASYRSCLLSSPGTMLKTWARLQPRTESLLRALVAEKADCHEALLAAWKKNPKYLLAEYCEWLPQAMHPDIEKAWPPTTVH [DHX37] | 50.3 | 0.32 | 0.922 | 0.635 | -1 |  |
| MVHQVLYRALVSTKWLAESIRTGKLGPGLRVLDASWYSPGTREARKEYLERHVPGASFFDIEECRDTASPYEMMLPSEAGFAEYVGRLGISNHTHVVVYDGEHLGSFYAPRVWWMFRVFGHRTVSVLNGGFRNWLKEGHPVTSEPSRPEPAVFKATLDRSLLKTYEQVLENLESKRFQLVDSRSQGRFLGTEPEPDAVGLDSGHIRGAVNMPFMDFLTEDGFEKGPEELRALFQTKKVDLSQPLIATCRKGVTACHVALAAYLCGKPDVAVYDGSWSEWFRRAPPESRVSQGKSEKA [TST] | 48.3 | 5.41 | 3.98 | -0.0824 | 0.187 | 49.3 |
| MDMLDPGLDPAASATAAAAASHDKGPEAEEGVELQEGGDGPGAEEQTAVAITSVQQAAFGDHNIQYQFRTETNGGQVTYRVVQVTDGQLDGQGDTAGAVSVVSTAAFAGGQQAVTQVGVDGAAQRPGPAAASVPPGPAAPFPLAVIQNPFSNGGSPAAEAVSGEARFAYFPASSVGDTTAVSVQTTDQSLQAGGQFYVMMTPQDVLQTGTQRTIAPRTHPYSPKIDGTRTPRDERRRAQHNEVERRRRDKINNWIVQLSKIIPDCNADNSKTGASKGGILSKACDYIRELRQTNQRMQETFKEAERLQMDNELLRQQIEELKNENALLRAQLQQHNLEMVGEGTRQ [USF2] | 54 | -0.00434 | -0.248 | 0.142 | -0.0293 | 54.6 |
| HCFC1 | 52.5 | -0.303 | 0.00236 | -0.0808 | 0.179 | 52.7 |
| MAKRSRGPGRRCLLALVLFCAWGTLAVVAQKPGAGCPSRCLCFRTTVRCMHLLLEAVPAVAPQTSILDLRFNRIREIQPGAFRRLRNLNTLLLNNNQIKRIPSGAFEDLENLKYLYLYKNEIQSIDRQAFKGLASLEQLYLHFNQIETLDPDSFQHLPKLERLFLHNNRITHLVPGTFNHLESMKRLRLDSNTLHCDCEILWLADLLKTYAESGNAQAAAICEYPRRIQGRSVATITPEELNCERPRITSEPQDADVTSGNTVYFTCRAEGNPKPEIIWLRNNNELSMKTDSRLNLLDDGTLMIQNTQETDQGIYQCMAKNVAGEVKTQEVTLRYFGSPARPTFVIQPQNTEVLVGESVTLECSATGHPPPRISWTRGDRTPLPVDPRVNITPSGGLYIQNVVQGDSGEYACSATNNIDSVHATAFIIVQALPQFTVTPQDRVVIEGQTVDFQCEAKGNPPPVIAWTKGGSQLSVDRRHLVLSSGTLRISGVALHDQGQYECQAVNIIGSQKVVAHLTVQPRVTPVFASIPSDTTVEVGANVQLPCSSQGEPEPAITWNKDGVQVTESGKFHISPEGFLTINDVGPADAGRYECVARNTIGSASVSMVLSVNVPDVSRNGDPFVATSIVEAIATVDRAINSTRTHLFDSRPRSPNDLLALFRYPRDPYTVEQARAGEIFERTLQLIQEHVQHGLMVDLNGTSYHYNDLVSPQYLNLIANLSGCTAHRRVNNCSDMCFHQKYRTHDGTCNNLQHPMWGASLTAFERLLKSVYENGFNTPRGINPHRLYNGHALPMPRLVSTTLIGTETVTPDEQFTHMLMQWGQFLDHDLDSTVVALSQARFSDGQHCSNVCSNDPPCFSVMIPPNDSRARSGARCMFFVRSSPVCGSGMTSLLMNSVYPREQINQLTSYIDASNVYGSTEHEARSIRDLASHRGLLRQGIVQRSGKPLLPFATGPPTECMRDENESPIPCFLAGDHRANEQLGLTSMHTLWFREHNRIATELLKLNPHWDGDTIYYETRKIVGAEIQHITYQHWLPKILGEVGMRTLGEYHGYDPGINAGIFNAFATAAFRFGHTLVNPLLYRLDENFQPIAQDHLPLHKAFFSPFRIVNEGGIDPLLRGLFGVAGKMRVPSQLLNTELTERLFSMAHTVALDLAAINIQRGRDHGIPPYHDYRVYCNLSAAHTFEDLKNEIKNPEIREKLKRLYGSTLNIDLFPALVVEDLVPGSRLGPTLMCLLSTQFKRLRDGDRLWYENPGVFSPAQLTQIKQTSLARILCDNADNITRVQSDVFRVAEFPHGYGSCDEIPRVDLRVWQDCCEDCRTRGQFNAFSYHFRGRRSLEFSYQEDKPTKKTRPRKIPSVGRQGEHLSNSTSAFSTRSDASGTNDFREFVLEMQKTITDLRTQIKKLESRLSTTECVDAGGESHANNTKWKKDACTICECKDGQVTCFVEACPPATCAVPVNIPGACCPVCLQKRAEEKP [PXDN] | 54 | 3.4 | 3.61 | -0.103 | -0.0223 | 54.5 |
| MENSQLCKLFIGGLNVQTSESGLRGHFEAFGTLTDCVVVVNPQTKRSRCFGFVTYSNVEEADAAMAASPHAVDGNTVELKRAVSREDSARPGAHAKVKKLFVGGLKGDVAEGDLIEHFSQFGTVEKAEIIADKQSGKKRGFGFVYFQNHDAADKAAVVKFHPIQGHRVEVKKAVPKEDIYSGGGGGGSRSSRGGRGGRGRGGGRDQNGLSKGGGGGYNSYGGYGGGGGGGYNAYGGGGGGSSYGGSDYGNGFGGFGSYSQHQSSYGPMKSGGGGGGGGSSWGGRSNSGPYRGGYGGGGGYGGSSF [HNRNPA0] | 45.2 | 3.72 | 12.8 | 0.24 | -0.218 | 47 |
| ITPR3 | 48.6 | 0.858 | 2.41 | 0.0432 | -0.508 | 50.1 |
| MGGAVVDEGPTGVKAPDGGWGWAVLFGCFVITGFSYAFPKAVSVFFKELIQEFGIGYSDTAWISSILLAMLYGTGPLCSVCVNRFGCRPVMLVGGLFASLGMVAASFCRSIIQVYLTTGVITGLGLALNFQPSLIMLNRYFSKRRPMANGLAAAGSPVFLCALSPLGQLLQDRYGWRGGFLILGGLLLNCCVCAALMRPLVVTAQPGSGPPRPSRRLLDLSVFRDRGFVLYAVAASVMVLGLFVPPVFVVSYAKDLGVPDTKAAFLLTILGFIDIFARPAAGFVAGLGKVRPYSVYLFSFSMFFNGLADLAGSTAGDYGGLVVFCIFFGISYGMVGALQFEVLMAIVGTHKFSSAIGLVLLMEAVAVLVGPPSGGKLLDATHVYMYVFILAGAEVLTSSLILLLGNFFCIRKKPKEPQPEVAAAEEEKLHKPPADSGVDLREVEHFLKAEPEKNGEVVHTPETSV [SLC16A3] | 60.1 | -4.29 | -4.22 | -0.161 | 0.106 | 61.9 |
| MGQNDLMGTAEDFADQFLRVTKQYLPHVARLCLISTFLEDGIRMWFQWSEQRDYIDTTWNCGYLLASSFVFLNLLGQLTGCVLVLSRNFVQYACFGLFGIIALQTIAYSILWDLKFLMRNLALGGGLLLLLAESRSEGKSMFAGVPTMRESSPKQYMQLGGRVLLVLMFMTLLHFDASFFSIVQNIVGTALMILVAIGFKTKLAALTLVVWLFAINVYFNAFWTIPVYKPMHDFLKYDFFQTMSVIGGLLLVVALGPGGVSMDEKKKEW [SURF4] | 57.4 | -0.529 | -2.05 | 0.00821 | 0.185 | 56.2 |
| MAHQTGIHATEELKEFFAKARAGSVRLIKVVIEDEQLVLGASQEPVGRWDQDYDRAVLPLLDAQQPCYLLYRLDSQNAQGFEWLFLAWSPDNSPVRLKMLYAATRATVKKEFGGGHIKDELFGTVKDDLSFAGYQKHLSSCAAPAPLTSAERELQQIRINEVKTEISVESKHQTLQGLAFPLQPEAQRALQQLKQKMVNYIQMKLDLERETIELVHTEPTDVAQLPSRVPRDAARYHFFLYKHTHEGDPLESVVFIYSMPGYKCSIKERMLYSSCKSRLLDSVEQDFHLEIAKKIEIGDGAELTAEFLYDEVHPKQHAFKQAFAKPKGPGGKRGHKRLIRGPGENGDDS [TWF2] | 53.6 | -0.101 | -1.11 | -0.23 | 0.275 | 53 |
| MNNLSFSELCCLFCCPPCPGKIASKLAFLPPDPTYTLMCDESGSRWTLHLSERADWQYSSREKDAIECFMTRTSKGNRIACMFVRCSPNAKYTLLFSHGNAVDLGQMSSFYIGLGSRINCNIFSYDYSGYGASSGKPTEKNLYADIEAAWLALRTRYGIRPENVIIYGQSIGTVPSVDLAARYESAAVILHSPLTSGMRVAFPDTKKTYCFDAFPNIDKISKITSPVLIIHGTEDEVIDFSHGLALFERCQRPVEPLWVEGAGHNDVELYGQYLERLKQFVSQELVNL [ABHD17B] | 54.9 | -2.83 | -2.95 | -0.163 | 0.0257 | 54.3 |
| MGPLSARLLMQRGRPKSDRLGKIRSLDLSGLELLSEHLDPKLLCRLTQLQELDLSNNHLETLPDNLGLSHLRVLRCANNQLGDVTALCQFPKLEELSLEGNPFLTVNDNLKVSFLLPTLRKVNGKDASSTYSQVENLNRELTSRVTAHWEKFMATLGPEEEAEKAQADFVKSAVRDVRYGPESLSEFTQWRVRMISEELVAASRTQVQKANSPEKPPEAGAAHKPRARLAALKRPDDVPLSLSPSKRACASPSAQVEGSPVAGSDGSQPAVKLEPLHFLQCHSKNNSPQDLETQLWACAFEPAWEEGATSQTVATCGGEAVCVIDCQTGIVLHKYKAPGEEFFSVAWTALMVVTQAGHKKRWSVLAAAGLRGLVRLLHVRAGFCCGVIRAHKKAIATLCFSPAHETHLFTASYDKRIILWDIGVPNQDYEFQASQLLTLDTTSIPLRLCPVASCPDARLLAGCEGGCCCWDVRLDQPQKRRVCEVEFVFSEGSEASGRRVDGLAFVNEDIVASKGSGLGTICLWSWRQTWGGRGSQSTVAVVVLARLQWSSTELAYFSLSACPDKGIVLCGDEEGNVWLYDVSNILKQPPLLPAALQAPTQILKWPQPWALGQVVTKTMVNTVVANASFTYLTALTDSNIVAIWGRM [LRWD1] | 48 | 1.14 | 1.7 | -0.0674 | -0.185 | 49.1 |
| HNRNPAB | 55.3 | -0.524 | -3.14 | 0.251 | 0.308 | 54.4 |
